Measured values reported in patent US20120142103A1, “METHOD FOR INDUCING DIFFERENTIATION INTO EPITHELIAL PROGENITOR CELL/STEM CELL POPULATION AND CORNEAL EPITHELIAL CELL POPULATION FROM INDUCED PLURIPOTENT STEM CELLS” (priority 2010, published 2012).

System: mouse iPS cells
Assay: Modified KCM method: differentiation of mouse iPS cells on collagen into epithelial progenitor/stem cells (immunostaining, flow cytometry of keratin 14-positive cells)
Format: cell-based
Protocol: The iPS cells on the SNL feeders were collected by treatment with 0.25% trypsin/EDTA and further pipetted to prepare an iPS cell suspension (single cell suspension). The obtained cell suspension was incubated on a gelatin-coated culture dish for approximately 1 to 2 hours. The supernatant was collected to thereby allow only the feeder cells to adhere to the dish and collect only the iPS cells. The number of the obtained iPS cells was counted. The iPS cells were inoculated at a density of 0.5 to 10×10^3 cells/cm^2 onto a type IV collagen-coated culture dish as described below and cultured at 37° C. for 7 to 28 days in a 5% CO2 atmosphere using a KCM medium shown below. 0.5 nM BMP4, (R&D System) was further added to the KCM medium, and the cells were cultured in the same way as above.
The cells after differentiation induction were examined for the expressions of a basal epithelial cell marker keratin 14, an epithelial progenitor cell/stem cell marker p63, and a corneal epithelial differentiation marker keratin 12 by an immunostaining method. Moreover, keratin 14-positive cells were analyzed by flow cytometry. The immunostaining method and the flow cytometry analysis will be shown in detail below.
After fixation in cold methanol (−30° C./20 min), 5% NST was added to the cells, which were then left at room temperature for 30 minutes for blocking. […]

B1: BMP4: Bone Morphogenetic Protein 4, one of bone morphogenetic factors, belongs to the transforming growth factor-β (TGF-β) superfamily (protein, UniProt P12644 293-408, looked up)
Bone morphogenetic protein 4: SPKHHSQRARKKNKNCRRHSLYVDFSDVGWNDWIVAPPGYQAFYCHGDCPFPLADHLNSTNHAIVQTLVNSVNSSIPKACCVPTELSAISMLYLDEYDKVVLKNYQEMVVEGCGCR
0.5 nM BMP4 added to KCM medium, day 28, 2.9% without BMP4
  induction efficiency of differentiation (keratin 14-positive cells, flow cytometry): 6.0%
BMP4 added to KCM medium, day 28
  epithelial induction efficiency (keratin 14-positive and p63-positive cells, immunostaining): significantly increased epithelial induction efficiency
